Experimental data from US9993536B2, “Peptides and combination of peptides and scaffolds for use in immunotherapy against renal cell carcinoma (RCC) and other cancers” (immatics biotechnologies GmbH, priority 2015, dated 2018).

What was measured:
[1] = target: HLA-A*02:01 (Homo sapiens, UniProt P04439, D140Y/D185E/D98H/E176V/E277Q/G131W/G231S/I119V/I121R/I166T/I218V/L300P/L318F/N151K/N90K/P208A/P217A/Q86G/Q94H/R138H/R169H/T345S); assay: MHC binding assay (UV-ligand exchange, beta2m ELISA); settings: peptide exchange yield, HLA-A*02:01, UV-ligand exchange
Excerpt: Candidate peptides for T cell based therapies according to the present invention were further tested for their MHC binding capacity (affinity). The individual peptide-MHC complexes were produced by UV-ligand exchange, where a UV-sensitive peptide is cleaved upon UV-irradiation, and exchanged with the peptide of interest as analyzed. Only peptide candidates that can effectively bind and stabilize the peptide-receptive MHC molecules prevent dissociation of the MHC complexes. To determine the yield of the exchange reaction, an ELISA was performed based on the detection of the light chain (β2m) of stabilized MHC complexes. The assay was performed as generally described in Rodenko et al. (Rodenko et al., 2006).
96 well MAXISorp plates (NUNC) were coated over night with 2 ug/ml streptavidin in PBS at room temperature, washed 4× and blocked for 1 h at 37° C. in 2% BSA containing blocking buffer. Refolded HLA-A*02:01/MLA-001 monomers served as standards, covering the range of 15-500 ng/ml. Peptide-MHC monomers of the UV-exchange reaction were diluted 100 fold in blocking buffer. Samples were incubated for 1 h at 37° C., washed four times, incubated with 2 ug/ml HRP conjugated anti-β2m for 1 h at 37° C., washed again and detected with TMB solution that is stopped with […]. Absorption was measured at 450 nm. Candidate peptides that show a high exchange yield (preferably higher than 50%, most preferred higher than 75%) are generally preferred for a generation and production of antibodies or fragments thereof, and/or T cell receptors or fragments thereof, as they show sufficient avidity to the MHC molecules and prevent dissociation of the MHC complexes.

[2] = test system: CD8+ T cells; assay: In vitro T-cell priming assay with aAPCs loaded with peptide/MHC complexes and anti-CD28 (immunogenicity, multimer staining); type: cell-based, human; settings: in vitro immunogenicity, HLA class I peptides; percentage of positive wells
Excerpt: In order to obtain information regarding the immunogenicity of the TUMAPs of the present invention, the inventors performed investigations using an in vitro T-cell priming assay based on repeated stimulations of CD8+ T cells with artificial antigen presenting cells (aAPCs) loaded with peptide/MHC complexes and anti-CD28 antibody.
In order to perform in vitro stimulations by artificial antigen presenting cells loaded with peptide-MHC complex (pMHC) and anti-CD28 antibody, the inventors first isolated CD8+ T cells from fresh HLA-A*02 leukapheresis products via positive selection using CD8 microbeads (Miltenyi Biotec, Bergisch-Gladbach, Germany) of healthy donors obtained from the University clinics Mannheim, Germany, after informed consent.
PBMCs and isolated CD8+ lymphocytes were incubated in T-cell medium (TCM) until use consisting of RPMI-Glutamax (Invitrogen, Karlsruhe, Germany) supplemented with 10% heat inactivated human AB serum (PAN-Biotech, Aidenbach, Germany), 100 U/ml Penicillin/100 μg/ml Streptomycin (Cambrex, Cologne, Germany), 1 mM sodium pyruvate (CC Pro, Oberdorla, Germany), 20 μg/ml Gentamycin (Cambrex). 2.5 ng/ml IL-7 (PromoCell, Heidelberg, Germany) and 10 U/ml IL-2 (Novartis Pharma, Nürnberg, Germany) were also added to the TCM at this step.
Generation of pMHC/anti-CD28 coated beads, T-cell stimulations and readout was performed in a highly defined in vitro system using four different pMHC molecules per stimulation condition and 8 different pMHC molecules per readout condition.
The purified co-stimulatory mouse IgG2a anti human CD28 Ab 9.3 (Jung et al., 1987) was chemically biotinylated using Sulfo-N-hydroxysuccinimidobiotin as recommended by the manufacturer (Perbio, Bonn, Germany). Beads used were 5.6 μm diameter streptavidin coated polystyrene particles (Bangs Laboratories, Illinois, USA).
pMHC used for positive and negative control stimulations were A*0201/MLA-001 (peptide […] (SEQ ID NO. 152) from modified Melan-A/MART-1) and A*0201/DDX5-001 ([…] from DDX5 (SEQ ID NO. 153)), respectively.
800.000 beads/200 μl were coated in 96-well plates in the presence of 4×12.5 ng different biotin-pMHC, washed and 600 ng biotin anti-CD28 were added subsequently in a volume of 200 μl. Stimulations were initiated in 96-well plates by co-incubating […] CD8+ T cells with 2×10^5 washed coated beads in 200 μl TCM supplemented with 5 ng/ml IL-12 (PromoCell) for 3 days at 37° C. Half of the medium was then exchanged by fresh TCM supplemented with 80 U/ml IL-2 and incubating was continued for 4 days at 37° C. This stimulation cycle was performed for a total of three times. For the pMHC multimer readout using 8 different pMHC molecules per condition, a two-dimensional combinatorial coding approach was used as previously described (Andersen et al., 2012) with minor modifications encompassing coupling to 5 different fluorochromes. Finally, multimeric analyses were performed by staining the cells with Live/dead near IR dye (Invitrogen, Karlsruhe, Germany), CD8-FITC antibody clone SK1 (BD, Heidelberg, Germany) and fluorescent pMHC multimers. For analysis, a BD LSRII SORP cytometer equipped with appropriate lasers and filters was used. Peptide specific cells were calculated as percentage of total CD8+ cells. Evaluation of multimeric analysis was done using the FlowJo software (Tree Star, Oregon, USA). In vitro priming of specific multimer+ CD8+ lymphocytes was detected by comparing to negative control stimulations.

| Substance | Peptide exchange (MHC class I binding score) [1] | Wells positive [%] [2] |
| --- | --- | --- |
| 7 (FLLSLIDRL; listed as Homo sapiens) [compound 7] | +++ (≥50 = +++) | + (<20% = +) |
| 6 (VLFELSKTV; listed as Homo sapiens) [compound 6] | +++ (≥50 = +++) | + (<20% = +) |
| 3 (RLLGEVQAL; listed as Homo sapiens) [compound 3] | ++ (≥20% = ++) | + (<20% = +) |
| 2 (ILWREVVTL; listed as Homo sapiens) [compound 2] | +++ (≥50 = +++) | + (<20% = +) |
| 95 (KLTDVGIATL; listed as Homo sapiens) [compound 95] | ++ (≥20% = ++) | ++++ (>=70% = ++++) |
| 29 (ILLDLEQAL; listed as Homo sapiens) [compound 29] | +++ (≥50 = +++) | + (<20% = +) |
| 20 (AVANTTFTV; listed as Homo sapiens) [compound 20] | ++ (≥20% = ++) | + (<20% = +) |
| 16 (FMPEELPQL; listed as Homo sapiens) [compound 16] | ++ (≥20% = ++) | + (<20% = +) |
| 1 (ALIVSLPYL; listed as Homo sapiens) [compound 1] | +++ (≥50 = +++) | + (<20% = +) |
| 98 (KIPPVSPSI; listed as Homo sapiens) [compound 98] | ++ (≥20% = ++) | ++++ (>=70% = ++++) |
